For the data set, the system named is MS2 coat protein. Put plainly: apparent KD of MS2 coat protein; designed switch direction (-1 OFF switch, 1 ON switch): 1; higher = weaker reporter binding. In a few lines: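 Designed RNA switches were transcribed on Illumina chips by stalled E. coli RNA polymerase and titrated with SNAP-549-labelled MS2 coat protein from 0.7 or 1.5 nM, doubling to 3 µM. Step length ran from 0.8–1.5 h at the lowest concentration to 10–20 min at the highest. The apparent KD is the median over clusters for each design, from curve-fitted normalised cluster fluorescence.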

Setting [1] is: Eterna round: R95, input ligand: FMN 200 uM.
Where [2] appears, read: Eterna round: R95, input ligand: microRNA oligo, concentration not stated.
Setting [3] is: Eterna round: R95, input ligand: none.
Setting [4] is: input ligand: microRNA oligo, concentration not stated.

“CUCAAAACAAGUUGCAGUGUUCGUCUUUAACAUGAGGAUCACCCAUGUAAUAGCCUGGUGGAAGCGCUCGGGCCACC [Qurabila] (puzzle: Sensor for hsa-mir-208a)”: the “apparent KD of MS2 coat protein” value by setting is: under setting [1], 23.4 nM; under setting [2], 15.6 nM; under setting [3], 25.1 nM.

As for “CUCAACAACACAGGAUAUCCAGGGAAAAGACCUGGAGAAGGGUGACCAACAUGAGGAUCACCCAUGUGACGGCUAGACCGUCUG [Isquce] (Eterna round: R96, puzzle: Same State NG 1)”, the “apparent KD of MS2 coat protein” value by setting is: (input ligand: FMN 200 uM) 593 nM; under setting [4], 24 nM; (input ligand: none) 249 nM.

“CUGAGCGAUCAAGGAUAUCACGUCGAUUAGACGUGAGAAGGUGAUCAUAACAUGAGGAUCACCCAUGUAUUACAUGAAGCUCAG [SSNG1/2-A2] (Eterna round: R96, puzzle: Same State NG 1)”: the “apparent KD of MS2 coat protein” value (input ligand: FMN 200 uM) worked out at 386 nM, the “apparent KD of MS2 coat protein” value under setting [4] is 146 nM and the “apparent KD of MS2 coat protein” value (input ligand: none) worked out at 1620 nM.

With “CUGAGGAAGAGAGAGGAUAUCCAAAGGAAAACAUGAGGAUCACCCAUGUAAAAGGUAGGAAAUUGGGAGAAGGCUCAAGAGAGAG [salish99-ss2-068] (Eterna round: R96, puzzle: Same State 2)”, the “apparent KD of MS2 coat protein” value turned out to be 32.3 nM (input ligand: FMN 200 uM), 38.3 nM under setting [4] and 39.3 nM (input ligand: none).

Take “CUGAGGUGUCAAGGAUAUGCUACCGUUUCGGUAGCAGAAGGUGAUCACAUGAGGAUCACCCAUGUAUGCAUGCGUGAGCGUGCU [JL SSNG1 3.60] (Eterna round: R96, puzzle: Same State NG 1)”: the “apparent KD of MS2 coat protein” value under setting [4] came to 17.8 nM.

Turning to “CUGUAUCGCGGAGGAUAUGGGCUGAGACCAGGGCAACCCUGGUCAACAUGAGGAUCACCCAUGUCCCAGAAGGCCGCGAUGCUA [Diaraenve] (Eterna round: R96, puzzle: Same State NG 2)”, the “apparent KD of MS2 coat protein” value is 19.7 nM (input ligand: FMN 200 uM), 73.6 nM under setting [4] and 113 nM (input ligand: none).

Take “CUUUUUAGUGCAGGAUAUGAUCAACAUGAGGAUCACCCAUGUGGCGUUGUGAGUAGGGAGAGUGAUCAGAAGGGCGUCUCCGCG [SS-NG2-LRO11] (Eterna round: R96, puzzle: Same State NG 2)”: the “apparent KD of MS2 coat protein” value is, setting by setting: (input ligand: FMN 200 uM) 72 nM; under setting [4], 36.1 nM; (input ligand: none) 59.9 nM.

For the sequence “GAAAAGACAUGAGGAUCACCCAUGUGAAAGCCUAAGGGCCCACAGGAUAUACAGUGAAAAGCACUGUAGAAGGGUGAUAAAGAC [Ordibidi] (Eterna round: R96, puzzle: Same State NG 3)”, the “apparent KD of MS2 coat protein” value by setting is: (input ligand: FMN 200 uM) 228 nM; under setting [4], 271 nM; (input ligand: none) 172 nM.

In the case of “GAAAAGGCAACGCAGGAUAUGAAAGGUGAAACAUGAGGAUCACCCAUGUGCUACCUUCCGAUAAAUCAGAAGGGCGACGCCAAAA [Leceave] (puzzle: Same State 2)”, the “apparent KD of MS2 coat protein” value runs as follows: under setting [1], 15.4 nM; under setting [2], 15.6 nM; under setting [3], 19.4 nM.

Regarding “GACAUUCUAUCUCAGGAUAUCAUGUCAAAGACAUGAGGAUCACCCAUGUACCAGGAAACUGGUUAUGAGAAGGGAGAUAGAAUGA [Mat - Same State 2 - Mod - D46] (puzzle: Same State 2)”, the “apparent KD of MS2 coat protein” value under setting [1] amounted to 103 nM, the “apparent KD of MS2 coat protein” value under setting [2] turned out to be 1880 nM and the “apparent KD of MS2 coat protein” value under setting [3] came to 176 nM.

“GACCGCGAGGAAGGAUAUGGAGCCUUAUUGGCUCCAGAAGGUCCAUAAAGGACAUGAGGAUCACCCAUGUGGGCUGAAGCGGUC [Fiskers NG1ss - 9] (Eterna round: R96, puzzle: Same State NG 1)”: the “apparent KD of MS2 coat protein” value was 22 nM (input ligand: FMN 200 uM), 25.8 nM under setting [4] and 35.1 nM (input ligand: none).

As to “GACCGCGAGGAAGGAUAUGGAGCCUUAUUGGCUCCAGAAGGUCCAUAAAGGACAUGAGGAUCACCCAUGUGGGUUGGAGCGGUC [Fiskers NG1ss - 0] (Eterna round: R96, puzzle: Same State NG 1)”, the “apparent KD of MS2 coat protein” value runs as follows: (input ligand: FMN 200 uM) 32.8 nM; under setting [4], 96.2 nM; (input ligand: none) 176 nM.

In the case of “GAGAAGAGGGACAAGGAUAUGUCAGGAGAGACAUGAGGAUCACCCAUGUAGAGGAAGAGAGAGAGACAGAAGGUGUCGAGAGCGA [JR_SS2_Sub015] (puzzle: Same State 2)”, the “apparent KD of MS2 coat protein” value is, setting by setting: under setting [1], 118 nM; under setting [2], 66 nM; under setting [3], 130 nM.

Consider “GAGAGAGGAAGCGAGGAUAUCGUGUUGGGUACAUGAGGAUCACCCAUGUUGUAGGUAGAGGUAGGCGAGAAGGCGCAGGAGAGGU [JR_SS2_Sub096] (puzzle: Same State 2)”, for which the “apparent KD of MS2 coat protein” value is, setting by setting: under setting [1], 105 nM; under setting [2], 67 nM; under setting [3], 195 nM.

Turning to “GAGAGAGGGCGAGGAUAUUCGGUGAUAAUGAUGGGAGAAGGCGCAGACAUGAGGAUCACCCAUGUGGGAAUAAUCCAGAGAGAG [Parity 13 - Jieux - Same State NG 1] (Eterna round: R96, puzzle: Same State NG 1)”, the “apparent KD of MS2 coat protein” value (input ligand: FMN 200 uM) was 151 nM, the “apparent KD of MS2 coat protein” value under setting [4] amounted to 111 nM and the “apparent KD of MS2 coat protein” value (input ligand: none) turned out to be 185 nM.

For “GAGCCAGUCCGAGGAUAUUCACAUGAGGAUCACCCAUGUAGGCUCAGAAAAGAAAAGGAGCCUUGGGAGAAGGCGGACUGGCUC [Xeonanisa<<8] (Eterna round: R96, puzzle: Same State NG 2)”, the “apparent KD of MS2 coat protein” value (input ligand: FMN 200 uM) is 6.35 nM, the “apparent KD of MS2 coat protein” value under setting [4] was found to be 9.87 nM and the “apparent KD of MS2 coat protein” value (input ligand: none) is 13.3 nM.

For “GAGCCAGUCCGAGGAUAUUCAUAAAUUAAAUACAUGAGGAUCACCCAUGUAGGCAGAGAGCCUUGGGAGAAGGCGGACUGGCUC [Xeonanisa>>3] (Eterna round: R96, puzzle: Same State NG 2)”, the “apparent KD of MS2 coat protein” value by setting is: (input ligand: FMN 200 uM) 10.9 nM; under setting [4], 25.5 nM; (input ligand: none) 37.3 nM.

With “GAGGAACAGGCCAACAUGAGGAUCACCCAUGUCCUCGCAUUUCAGGAUAUCUGGAAGAAGAAAAAAGAGAAGGGAAGGUGAAGC [AK SSNG3-V2-34.3] (Eterna round: R96, puzzle: Same State NG 3)”, the “apparent KD of MS2 coat protein” value is, setting by setting: (input ligand: FMN 200 uM) 198 nM; under setting [4], 140 nM; (input ligand: none) 165 nM.

Turning to “GAGGGACAGACCAACAUGAGGAUCACCCAUGUCCUCGCAGUUCAGGAUAUCCGGAGGUAGACGAAGGAGAAGGGAAGGUGAACC [AK SSNG3-V2-36] (Eterna round: R96, puzzle: Same State NG 3)”, the “apparent KD of MS2 coat protein” value came to 266 nM (input ligand: FMN 200 uM), 382 nM under setting [4] and 207 nM (input ligand: none).

Take “GAGGGACAGACCAACAUGAGGAUCACCCAUGUCCUCGGAGGUCAGGAUAUCCGGAGGUAGCCGAAGGAGAAGGGACGGUGAACC [AK SSNG3-V2-30.1] (Eterna round: R96, puzzle: Same State NG 3)”: the “apparent KD of MS2 coat protein” value by setting is: (input ligand: FMN 200 uM) 322 nM; under setting [4], 136 nM; (input ligand: none) 197 nM.

In the case of “GAGUAGUUGAAAGGAUAUUGAUUGUUAUAGAAUCAAGAAGGUUCUAACAUGAGGAUCACCCAUGUAGGACUAUUCCUGUGUAUC [Parity 78 - Jieux - Same State NG 1] (Eterna round: R96, puzzle: Same State NG 1)”, the “apparent KD of MS2 coat protein” value under setting [4] came out at 9.15 nM.

As to “GAGUAGUUGGAAGGAUAUCGAUUGUUAUAGAAUCGAGAAGGUCCUAACAUGAGGAUCACCCAUGUAGGACUAUUCCUGUGUAUC [Parity 76 - Jieux - Same State NG 1] (Eterna round: R96, puzzle: Same State NG 1)”, the “apparent KD of MS2 coat protein” value under setting [4] came out at 8.12 nM.

In the case of “GAGUAGUUGGGAGGAUAUCGAUUGUUAUAGAAUCGAGAAGGUUCUAACAUGAGGAUCACCCAUGUAGGACUAUUCCUGUGUAUC [Parity 74 - Jieux - Same State NG 1] (Eterna round: R96, puzzle: Same State NG 1)”, under setting [4], the “apparent KD of MS2 coat protein” value was 37.3 nM.

For “GAGUGGCAGUAAGGAUAUAUAAUGAUAAUCACAGUAGAAGGUACUGACAUGAGGAUCACCCAUGUAGGACUAAACCAGAGAGAG [Parity 43 - Jieux - Same State NG 1] (Eterna round: R96, puzzle: Same State NG 1)”, the “apparent KD of MS2 coat protein” value reads like this: (input ligand: FMN 200 uM) 33.8 nM; under setting [4], 20.2 nM; (input ligand: none) 20.1 nM.

Take “GAGUGGUAAAGAGGAUAUGCAUUGUUAUUCACUGUAGAAGGUUUUAACAUGAGGAUCACCCAUGUAGGACUAUUCCUGUGUUUC [Parity 63 - Jieux - Same State NG 1] (Eterna round: R96, puzzle: Same State NG 1)”: the “apparent KD of MS2 coat protein” value (input ligand: FMN 200 uM) worked out at 14.4 nM, the “apparent KD of MS2 coat protein” value under setting [4] is 11.8 nM and the “apparent KD of MS2 coat protein” value (input ligand: none) turned out to be 17.3 nM.

Regarding “GAUAAACAUGAGGAUCACCCAUGUAAUAAUAUGGGAGGAUAUCAGAAUGUAUGUAUGUAAUGAGAAGGCCUAAAUG [Mat - Same State 1 - Mod of Eli - D73] (puzzle: Same State 1)”, the “apparent KD of MS2 coat protein” value worked out at 104 nM under setting [1], 425 nM under setting [2] and 309 nM under setting [3].

In the case of “GAUUCACAUGAGGAUCACCCAUGUCGUUAUAUGGGAGGAUAUACGUGGACCGUAGUCCGCGUAGAAGGCCUAAUUG [JL-ss1-3.25 janelle mod] (puzzle: Same State 1)”, under setting [2], the “apparent KD of MS2 coat protein” value is 303 nM.

Regarding “GCAAUGGCGGUAGGAUAUCUAGGAUAUGGGAAAGACUAAGUCUGUAGGUCACCUAACCCAGAAGGAGAGAAGGACCCUGUAAGG [pwkr ssNG2 2FMN + F9.24] (Eterna round: R96, puzzle: Same State NG 2)”, the “apparent KD of MS2 coat protein” value is 43.2 nM (input ligand: FMN 200 uM), 9.31 nM under setting [4] and 30.8 nM (input ligand: none).
